Data published in IntAct's records for PubMed 35850301.

B1: Maternal protein pumilio (Drosophila melanogaster (Fruit fly)), P25822 (parent)
chain: MKFLGGNDDRNGRGGVGVGTDAIVGSRGGVSQDAADAAGAAAAAAVGYVFQQRPSPGGVGVGVGGVGGGVPGVGAVGSTLHEAAAAEYAAHFAQKQQQTRWACGDDGHGIDNPDKWKYNPPMNPANAAPGGPPGNGSNGGPGAIGTIGMGSGLGGGGGGGAGGGNNGGSGTNGGLHHQSMAAAAANMAAMQQAAALAKHNHMISQAAAAVAAQQQHQHPHQQHPQQQQQQQQAQNQGHPHHLMGGGNGLGNGNGLGIQHPGQQQQQQQQQQQQQHPGQYNANLLNHAAALGHMSSYAQSGGSMYDHHGGAMHPGMNGGMPKQQPLGPPGAGGPQDYVYMGGQTTVPMGAAMMPPQNQYMNSSAVAAANRNAAITTSTAKKLWEKSDGKGVSSSTPGGPLHPLQIPGIGDPSSVWKDHTWSTQGENILVPPPSRAYAHGGASDTSNSGNAGILSPRDSTCAKVVEYVFSGSPTNKDSSLSGLEPHLRNLKFDDNDKSRDDKEKANSPFDTNGLKKDDQVTNSNGVVNGIDDDKGFNRTPGSRQPSPAEESQPRPPNLLFPPLPFNHMLMDHGQGMGGGLGGVVGSGNGVGGGSGGGGAGGAYAAHQQMAAQMSQLQPPMMNGVGGGMPMAAQSPMLNHQAAGPNHMESPGNLLQQQNFDVQQLFRSQNPGLAAVATNAAAAAAAAAAATSAASAAAAVGAPPVPNGSLQQSQQQQQQQQQQQQQQQMHMAAASQQFLAAQQQAQNAAYAAQQATSYVINPGQEAAPYMGMIAAAQMPYYGVAPWGMYPGNLIPQQGTQPRRPLTPSQQGAENQPYQVIPAFLDHTGSLLMGGPRTGTPMRLVSPAPVLVPPGATRAGPPPPQGPQLYQPQPQTAQQNLYSQQNGSSVGGLALNTSSLTGRRDSFDRSTSAFSPSTMDYTSSGVAAAANAVNSTVAQAAAAAAAAAAARGKWPGAMSGAASGAYGALGAGNASASPLGAPITPPPSAQSCLLGSRAPGAESRQRQQQQQQLAAVGLPATAAAAQAAVAAAANNMFGSNSSIFSNPLAIPGTAAVAAAAAAAAAANSRQVAATAAAAAAVAAAAGGVGGAPQPGRSRLLEDFRNQRYPNLQLRDLANHIVEFSQDQHGSRFIQQKLERATAAEKQMVFSEILAAAYSLMTDVFGNYVIQKFFEFGTPEQKNTLGMQVKGHVLQLALQMYGCRVIQKALESISPEQQQEIVHELDGHVLKCVKDQNGNHVVQKCIECVDPVALQFIINAFKGQVYSLSTHPYGCRVIQRILEHCTAEQTTPILDELHEHTEQLIQDQYGNYVIQHVLEHGKQEDKSILINSVRGKVLVLSQHKFASNVVEKCVTHATRGERTGLIDEVCTFNDNALHVMMKDQYANYVVQKMIDVSEPTQLKKLMTKIRPHMAALRKYTYGKHINAKLEKYYMKITNPITVGTGAGGVPAASSAAAVSSGATSASVTACTSGSSTTTTSTTNSLASPTICSVQENGSAMVVEPSSPDASESSSSVVSGAVNSSLGPIGPPTNGNVVL
partner: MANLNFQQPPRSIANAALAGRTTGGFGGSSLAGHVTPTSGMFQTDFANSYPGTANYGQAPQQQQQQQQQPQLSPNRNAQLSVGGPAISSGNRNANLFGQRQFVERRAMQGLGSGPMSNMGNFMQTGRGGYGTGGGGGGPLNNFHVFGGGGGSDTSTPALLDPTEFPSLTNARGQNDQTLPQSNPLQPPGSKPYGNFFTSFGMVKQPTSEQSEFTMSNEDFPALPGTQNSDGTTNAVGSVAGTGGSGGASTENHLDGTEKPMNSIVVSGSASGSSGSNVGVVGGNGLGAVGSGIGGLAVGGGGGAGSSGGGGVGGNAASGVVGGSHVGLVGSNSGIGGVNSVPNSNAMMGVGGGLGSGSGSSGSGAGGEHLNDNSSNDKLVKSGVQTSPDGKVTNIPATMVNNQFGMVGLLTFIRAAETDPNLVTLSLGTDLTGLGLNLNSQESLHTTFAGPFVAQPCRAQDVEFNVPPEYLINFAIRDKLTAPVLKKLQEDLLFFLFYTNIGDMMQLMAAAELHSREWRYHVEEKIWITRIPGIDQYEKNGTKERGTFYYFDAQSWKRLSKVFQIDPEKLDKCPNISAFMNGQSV

Variants of: B1
Settings: with rga_drome Rga

| effect of a mutation on the interaction | Variant |
| --- | --- |
| with no effect | F1040A |
| with no effect | F1033A |
| decreasing interaction strength | F1033A;F1040A |

Variants of: B1
Settings: with rga_drome Rga
Remark: another data set of the same source

| effect of a mutation on the interaction | Variant |
| --- | --- |
| decreasing interaction strength | F1033A;F1040A |
